Assay results: patent US20100004162A1 (ROCKEFELLER UNIVERSITY, published 2010)
Values joined by “and” are separate entries in the source; they are usually repeats but may differ in a detail not shown here. Equal entries are not always repeated. Each block holds one molecule with its values, some of them ahead of it.

Experiments:
[1] = target: chicken α4β2 nicotinic acetylcholine receptor expressed in Xenopus oocytes (chicken) (UniProt P09482); assay: cell-based or functional assay
[2] = target: T1, nAChR alpha 7 subunit (chick alpha 7 construct) expressed in 293T cells (chick, UniProt P22770 24-502); assay: Far Western blot of extracts of transfected 293T cells
T1 construct: It was in the extract of transfected 293T cells, separated by SDS-PAGE and probed by Far Western
Excerpt: Far Western Analysis. A fragment of the Lynx1 cDNA corresponding to the mature polypeptide was cloned in frame to the C-terminus of the coding sequence for the secreted human placental alkaline phosphatase (referred to as Lynx/AP). The APtag-4 vector was provided by Dr. John Flanagan (Cheng, H.-J. et al (1995) Cell 82, 371-381). Constructs were transfected into 293T cells using calcium phosphate precipitation. Conditioned media was collected and treated as described (Cheng, H.-J. et al (1995) Cell 82, 371-381): 20 μg of crude extract was electrophoretically separated and transferred to PVDF membrane (Immobilon P, Millipore). Filters were renatured as specified (Rodriguez, P. L. & Carrasco, L. (1994) Biotech. 17, 702-707), incubated overnight with equal amounts of cultured supernatants containing lynx/AP or unfused AP, washed, and treated with NBT/BCIP substrate according to manufacturer's directions (Pharmacia). To determine the relative activity of Lynx/AP protein compared to unfused AP, a dilution series of cultured supernatants was blotted onto nitrocellulose paper with a slot blot apparatus and reacted for AP activity.
The cells were harvested and lysed and cell extract was run out on an SDS-PAGE gel. […]

Chain of chicken α4β2 nicotinic acetylcholine receptor expressed in Xenopus oocytes (chicken) (P09482 24-622, chain 1 of 2): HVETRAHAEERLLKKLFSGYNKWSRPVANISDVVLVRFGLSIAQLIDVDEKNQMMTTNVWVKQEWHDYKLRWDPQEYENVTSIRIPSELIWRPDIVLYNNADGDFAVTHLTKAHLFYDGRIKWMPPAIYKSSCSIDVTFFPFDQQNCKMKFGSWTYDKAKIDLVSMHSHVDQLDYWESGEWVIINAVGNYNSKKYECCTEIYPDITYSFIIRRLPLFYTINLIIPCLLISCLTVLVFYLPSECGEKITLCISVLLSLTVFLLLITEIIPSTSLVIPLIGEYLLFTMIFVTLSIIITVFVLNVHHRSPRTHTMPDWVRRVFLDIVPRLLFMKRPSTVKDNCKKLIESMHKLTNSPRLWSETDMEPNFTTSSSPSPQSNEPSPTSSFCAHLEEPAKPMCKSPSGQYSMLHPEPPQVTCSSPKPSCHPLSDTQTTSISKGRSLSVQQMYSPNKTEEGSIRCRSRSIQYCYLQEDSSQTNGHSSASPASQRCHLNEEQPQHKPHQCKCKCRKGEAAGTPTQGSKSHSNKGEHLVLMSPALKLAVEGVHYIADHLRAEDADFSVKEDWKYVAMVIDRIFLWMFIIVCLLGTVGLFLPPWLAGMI
Chain of chicken α4β2 nicotinic acetylcholine receptor expressed in Xenopus oocytes (chicken) (P09484 19-491, chain 2 of 2, further chain): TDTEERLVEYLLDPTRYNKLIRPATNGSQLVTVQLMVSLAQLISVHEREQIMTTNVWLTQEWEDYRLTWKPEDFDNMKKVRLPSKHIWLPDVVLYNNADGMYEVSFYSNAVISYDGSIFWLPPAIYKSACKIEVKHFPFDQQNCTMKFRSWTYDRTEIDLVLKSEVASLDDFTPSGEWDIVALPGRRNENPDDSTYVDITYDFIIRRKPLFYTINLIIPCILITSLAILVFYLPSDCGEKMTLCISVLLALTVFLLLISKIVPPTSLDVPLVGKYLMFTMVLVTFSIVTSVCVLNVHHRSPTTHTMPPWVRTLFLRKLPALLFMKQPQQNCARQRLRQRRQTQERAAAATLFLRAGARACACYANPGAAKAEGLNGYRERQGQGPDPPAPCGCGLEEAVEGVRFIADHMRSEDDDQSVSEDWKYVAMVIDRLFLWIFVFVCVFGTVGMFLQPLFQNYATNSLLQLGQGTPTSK
T1 sequence (P22770 24-502): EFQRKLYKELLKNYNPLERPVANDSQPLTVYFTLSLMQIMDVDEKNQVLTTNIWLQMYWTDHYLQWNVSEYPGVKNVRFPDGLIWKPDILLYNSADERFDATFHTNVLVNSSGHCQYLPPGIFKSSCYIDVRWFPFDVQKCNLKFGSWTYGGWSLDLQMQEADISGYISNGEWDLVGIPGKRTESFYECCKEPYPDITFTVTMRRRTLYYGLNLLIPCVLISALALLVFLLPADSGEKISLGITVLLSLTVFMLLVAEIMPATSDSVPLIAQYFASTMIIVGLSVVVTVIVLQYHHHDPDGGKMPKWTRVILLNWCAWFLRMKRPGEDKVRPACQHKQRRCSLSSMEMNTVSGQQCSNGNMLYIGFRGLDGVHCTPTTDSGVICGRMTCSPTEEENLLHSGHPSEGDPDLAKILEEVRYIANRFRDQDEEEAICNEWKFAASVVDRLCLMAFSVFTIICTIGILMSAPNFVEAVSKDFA

amplitude of the ACh-evoked macroscopic currents [1]: 30% to 40% (2×) and 35%
Molecule: Lynx1-HA (CMV2611), column purified Lynx1 (from UniProt P0DP60 21-92) (ligand)

binding result [2]: binds
B1: Lynx/AP fusion protein (other)
chain: LECHVCAYNGDNCFKPMRCPAMATYCMTTRTYFTPYRMKVRKSCVPSCFETVYDGYSKHASATSCCQYYLCN
notes: It was used as conditioned medium of transfected 293T cells; also called Lynx1-alkaline phosphatase (AP) fusion; Lynx/AP supernatant; not shown: secreted human placental alkaline phosphatase from the APtag-4 vector
